From US20190381162A1 (INTEGRATED BIOTHERAPEUTICS, published 2019)

T1: Ebola virus (EBOV) glycoprotein (GP), wild-type, construct not stated (Ebola virus (EBOV), UniProt Q05320 33-650)
T1 sequence: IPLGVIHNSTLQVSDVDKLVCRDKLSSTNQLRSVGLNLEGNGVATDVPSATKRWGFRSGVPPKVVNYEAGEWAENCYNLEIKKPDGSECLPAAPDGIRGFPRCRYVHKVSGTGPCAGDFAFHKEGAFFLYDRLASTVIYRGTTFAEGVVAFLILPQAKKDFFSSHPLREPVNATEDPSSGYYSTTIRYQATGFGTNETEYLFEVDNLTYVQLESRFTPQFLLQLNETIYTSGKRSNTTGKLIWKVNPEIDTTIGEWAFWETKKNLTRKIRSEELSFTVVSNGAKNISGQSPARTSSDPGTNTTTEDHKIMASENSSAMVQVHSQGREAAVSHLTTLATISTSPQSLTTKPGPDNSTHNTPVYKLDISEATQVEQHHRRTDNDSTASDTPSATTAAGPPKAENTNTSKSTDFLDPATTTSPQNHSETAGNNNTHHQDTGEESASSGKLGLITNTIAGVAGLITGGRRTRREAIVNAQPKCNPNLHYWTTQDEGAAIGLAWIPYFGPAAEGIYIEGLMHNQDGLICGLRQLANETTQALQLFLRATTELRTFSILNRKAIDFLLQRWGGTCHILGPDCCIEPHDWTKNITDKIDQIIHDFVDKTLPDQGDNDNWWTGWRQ

T2: thermolysin-cleaved GP (GPCL) (Ebola virus (EBOV), UniProt Q05320 33-190; Q05320 502-650)
T2 sequence 1: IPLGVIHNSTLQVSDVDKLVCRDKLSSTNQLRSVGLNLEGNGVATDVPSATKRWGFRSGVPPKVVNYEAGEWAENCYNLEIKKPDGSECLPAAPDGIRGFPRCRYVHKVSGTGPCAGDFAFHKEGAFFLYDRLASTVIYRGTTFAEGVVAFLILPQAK
T2 sequence 2: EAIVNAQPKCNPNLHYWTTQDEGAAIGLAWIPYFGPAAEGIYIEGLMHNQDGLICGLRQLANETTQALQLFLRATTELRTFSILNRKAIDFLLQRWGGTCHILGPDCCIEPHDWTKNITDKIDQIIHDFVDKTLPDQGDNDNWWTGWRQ

B1: m8C4 (antibody, V domains shown)
VH: EVQLQESGPELKKPGETVKISCKASGYTFTTYGMSWVKQAPGKGLKWMGRINTYSGVPTYADEFKGRFAFSLENSASTAYLQINNLKNEDTATYFCARGDGGHWFANWGQGTLVTVSA
VL: DIQMTQSPSSLSASLGGKVTITCKASQDINKNIAWYQHKPGKGPRLLIWYKSALQPGIPSRFSGSGSGRDYSFSISNLEPEDIATYSCLQYDNLPPTFGGGTKLEIKR
B2: CA45 (antibody, V domains shown)
VH: QVQLQEWGEGLVKPSETLSLTCAVYGGSISGYYHWNWIRLPPGKGLEWIGNIDNSASTNYNPSLKTRVTISKDTSKNQISLKVRSLTAADTAVYYCARDPGFTIFGVVITSWSGLDSWGQGAVVTVSS
VL: DIQMTQSPSSLSASVGDTVTITCRASQSISNNLAWYQQRPRRAPQLLIYAASNLASGVPSRFSGSGSGTDFTLTISSLQAEDFAAYYCQQHNTLPLTFGGGTKVEI

Assays:
[1] = target: T1, Ebola virus (EBOV) glycoprotein (GP), …; experiment: cell-based or functional assay
[2] = target: T2, thermolysin-cleaved GP (GPCL); experiment: ELISA
[3] = target: T2, thermolysin-cleaved GP (GPCL); experiment: biolayer interferometry

| Binder | EC50 of neutralization of luciferase-expressing VSV pseudotype on Vero cells [1] | EC50 [2] | Kd [3] | koff [3] | kon [3] |
| --- | --- | --- | --- | --- | --- |
| B1 | > 10 µg/mL |  |  |  |  |
| B2 |  | 0.06 nM | < 0.006 nM | < 1e-07 s⁻¹ | 16000 M⁻¹ s⁻¹ |
